Columns and labels:
[1] = Temperature profile / phase transition of h[Gly2]GLP-2; format: physicochemical
Procedure: It has also been discovered that Tween 80®, salt, and arginine are not suitable materials for producing a stable formulation for h[Gly2]GLP-2.
(§1) Based on pH solubility profiles, it was determined that a phosphate buffer provides optimal buffering capacity for GLP-2 peptides. […] L-histidine acts as a stabilizing amino acid that increases the length of time that the GLP-2 peptide remains intact prior to degradation.

[2] = pH solubility profile of h[Gly2]GLP-2 (precipitation); format: physicochemical
Procedure: as §1

h[Gly2]GLP-2
phase transition temperature ([1]; depending upon the salt concentration): 40-55 °C | behaviour in the presence of salt ([1]; in the presence of salt): becomes hydrophobic in the presence of salt | heat-induced and salt-dependent transition temperature ([1]; temperature profiles): about 40 °C | pH at which the analog precipitated [2]: less than 5.5

— patent US7056886B2, “GLP-2 formulations” (NPS Allelix, Corp., priority 1999, dated 2006)
